Reference: patent publication US20120045393A1 (priority 2009, published 2012)
Read-outs that look alike come from different tables or passages of the source. Non-standard residues stand in square brackets, D forms with d. Primed or numbered codes have the meaning given here. DO3A10CM″ = chelating group at the N-terminus (X in the sequence tables); Bpa = N[C@@H](Cc1ccc(C(=O)c2ccccc2)cc1)C(=O)O; d2Nal = N[C@H](Cc1ccc2ccccc2c1)C(=O)O; DO3A10CM = not defined here; Bpa4 = non-natural residue; Amfe4 = not defined here; Hpgly = not defined here; Mogly = not defined here; Tha = not defined here; azaGly = NNC(=O)O; Sar = CNCC(=O)O

Assays:
[1] = test system: EFO-27 human ovarian cancer cells (LHRH binding sites); assay: Saturation binding of radiolabeled LHRH-II analogs to EFO-27 cells
Procedure: Saturation binding of ^125I-LHRH II and the ^177Lu-labeled LHRH II analog ^177Lu-BRU-2666 to EFO-27 cells was carried out to determine the binding affinity, binding capacity (Bmax) and receptor numbers. The data were analyzed for a single binding site using Prizm software.

EFO-27 cells = assay: Internalization/efflux studies in EFO-27 cells; format: cell-based, human
Procedure: Internalization/Efflux Studies: The internalization and efflux studies were carried out following the general procedure. Basically, ^177Lu-LHRH II or ^125I-LHRH II ([^125I-Tyr^8]BRU-2477) (75 uL, 3.0 μCi/mL) was added to the EFO-27 or PC-3 cells. The cells were incubated for 40 min at 37° C. The unbound radioactivity was washed off (4×). Following addition of fresh medium, the cells were further incubated for up to 2 h. At various time points (15, 30, 60 & 120 min) the distribution of radioactivity (membrane-bound, internalized, and efflux) was determined
The internalization and efflux of several Lu-177 labeled LHRH II analogs in EFO-27 cells have been investigated. Basically, following pre-incubation of cells with ^177Lu-LHRH II samples, the binding buffer containing the ^177Lu was replaced with fresh media without complex. The extent of initial internalization (T=0), the amount of radioactive material that remained internalized and the efflux at 0-120 min were determined. The results are shown in FIGS. 21a-f and 22a-c and in Table 25.

[2] = target: LHRH receptor (LHRH binding sites) on EFO-27 human ovarian cancer cells (human); assay: internalization/efflux study, cell-associated radioactivity, EFO-27 cells
[3] = target: LHRH receptor (LHRH binding sites) on EFO-27 human ovarian cancer cells (human); assay: direct binding of 177Lu-labeled peptide to EFO-27 cells, single concentration
[4] = target: LHRH receptor (LHRH binding sites) on EFO-27 human ovarian cancer cells (human); assay: internalization/efflux study, cell-associated radioactivity, EFO-27 cells, 200 fmoles added/well
[5] = target: LHRH receptor (LHRH binding sites) on EFO-27 human ovarian cancer cells (human); assay: saturation binding to EFO-27 cells, single-site fit
[6] = target: LHRH receptor (LHRH binding sites) on EFO-27 human ovarian cancer cells (human); assay: internalization/efflux study, cell-associated radioactivity, EFO-27 cells, 205 fmoles added/well
[7] = target: LHRH receptor (LHRH binding sites) on EFO-27 human ovarian cancer cells (human); assay: internalization/efflux study, cell-associated radioactivity, EFO-27 cells, 78 fmoles added/well
[8] = target: T1, LHRH binding sites on EFO-27 human ovarian cancer cells (human); assay: competition with [125I-Tyr8]BRU-2477 on EFO-27 cells
T1 chain: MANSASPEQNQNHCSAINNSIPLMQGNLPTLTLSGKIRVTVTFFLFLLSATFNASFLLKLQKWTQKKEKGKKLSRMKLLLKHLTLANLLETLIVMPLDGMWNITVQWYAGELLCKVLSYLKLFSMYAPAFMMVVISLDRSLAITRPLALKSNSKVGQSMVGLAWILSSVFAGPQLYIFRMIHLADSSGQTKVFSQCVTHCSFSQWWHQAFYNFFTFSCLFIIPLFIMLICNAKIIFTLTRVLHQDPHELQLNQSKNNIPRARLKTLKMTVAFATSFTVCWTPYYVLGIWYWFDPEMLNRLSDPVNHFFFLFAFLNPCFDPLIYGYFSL

[9] = target: T1, LHRH binding sites (presumed LHRH …); assay: as above
[10] = target: LHRH receptor (LHRH binding sites) on EFO-27 human ovarian cancer cells (human); assay: internalization/efflux study, cell-associated radioactivity, EFO-27 cells, 203 fmoles added/well
[11] = target: T1, LHRH binding sites (presumed LHRH …); assay: competition with [125I-Tyr8]BRU-2477 on EFO-27 cells
[12] = target: T1, LHRH binding sites (presumed LHRH …); assay: as above
[13] = target: T1, LHRH binding sites (presumed LHRH …); assay: as above
[14] = target: T1, LHRH binding sites (presumed LHRH …); assay: as above
[15] = target: LHRH receptor (LHRH binding sites) on EFO-27 human ovarian cancer cells (human); assay: competition with [125I-Tyr8]BRU-2477, EFO-27 cells
[16] = target: LHRH binding sites on EFO-27 human ovarian cancer cells (human); assay: competition with [125I-Tyr8]BRU-2477 on EFO-27 cells; remark: listed apart in the source
[17] = target: LHRH binding sites on EFO-27 human ovarian cancer cells (human); assay: as above; remark: listed apart in the source
[18] = target: LHRH receptor (LHRH binding sites) on EFO-27 human ovarian cancer cells (human); assay: competition with [125I-Tyr8]BRU-2477 for binding to EFO-27 cells
[19] = target: LHRH receptor (LHRH binding sites) on EFO-27 human ovarian cancer cells (human); assay: as above; remark: listed apart in the source
[20] = target: LHRH receptor (LHRH binding sites) on EFO-27 human ovarian cancer cells (human); assay: as above; remark: listed apart in the source
[21] = saturation binding, single binding site

N=C(N)NCCC[C@@H](NC(=O)[C@H](Cc1c[nH]cn1)NC(=O)[C@H](CO)NC(=O)[C@H](Cc1c[nH]c2ccccc12)NC(=O)[C@H](Cc1c[nH]cn1)NC(=O)[C@@H]1CCC(=O)N1)C(=O)N[C@@H](Cc1c[nH]c2ccccc12)C(=O)N[C@@H](Cc1ccc(O)c(I)c1)C(=O)N1CCC[C@H]1C(=O)NNC(N)=O [125I-LHRH II, Darg^6,^125I-Tyr^8,azaGly^10-LHRH-II, reference compound]
receptor numbers [1]: 85×10^6 /cell
Kd [1, 21]: 1290 nM
Max. binding (Bmax) [1, 21]: 141 pmoles/10^6 cells
Receptors/cell [1, 21]: 85 ×10^6
Kd ([1]; single binding site): 1290 nM
binding capacity (Bmax) ([1]; single binding site): 141 pmoles/million cells
Cell associated activity at 0 h % Efflux (EFO-27 cells; 0 h): 19%
Cell associated activity at 0 h % Intern (EFO-27 cells; 0 h, internalized): 36.7%
Cell associated activity at 0 h % Memb (EFO-27 cells; 0 h, membrane bound): 44.6%
Cell associated activity at 2 h % Efflux (EFO-27 cells; 2 h): 87.1%
Cell associated activity at 2 h % Intern (EFO-27 cells; 2 h, internalized): 4.9%
Cell associated activity at 2 h % Memb (EFO-27 cells; 2 h, membrane bound): 3.5%
initial internalization (EFO-27 cells; % of total bound (cell-associated) radioactivity, T=0): 35.6%
Bound % (EFO-27 cells; of added): 1.20%
Bound (EFO-27 cells; per well): 1.87 fmol

B1: ^177Lu-BRU-2757 (peptide)
peptide: XHWSHXWXPX
modifications: 177Lu held by the N-terminal DO3A10CM: 177Lu-DO3A10CM-Damfe4-His-Trp-Ser-His-Darg-Trp-Bpa4-Pro-azaGly-NH2
Bound % [2]: 9.5%
% Bound [3]: 11.1%
Bound fmoles [4]: 19 fmol

B2: ^177Lu-BRU-2666 (peptide)
peptide: XHWSHXWXPX
modifications: 177Lu held by the N-terminal DO3A10CM: 177Lu-DO3A10CM-Dnal2-His-Trp-Ser-His-Darg-Trp-Bpa4-Pro-azaGly-NH2
Kd [5]: 920 nM
Max. binding (Bmax) (pmoles/10^6 cells) [5]: 183
Receptors/cell (receptors/cell) [5]: 1.1e+08
Bound % [2]: 12.2%
% Bound [3]: 13.2%
Bound fmoles [6]: 25 fmol

B3: ^177Lu-BRU-2796 (peptide)
peptide: DO3A10CM-G[Mogly]HWSH[dR]W[Bpa]P[azaGly]-NH2
modifications: reading uncertain; also: 177Lu complexed by DO3A10CM, printed as 177Lu-DO3A10CM-Gly-Mogly-His-Trp-Ser-His-Darg-Trp-Bpa4-Pro-azaGly-NH2
Bound % [2]: 1.2%
Bound fmoles [7]: 0.93 fmol

B4: BRU-2763 (peptide)
peptide: {DO3A10CM″}-[Sar]HWSH[dR]WHP[azaGly]-NH2
notes: AA8 His
EC50 [8]: 13.6 µM

B5: BRU-3106 (peptide)
peptide: XRFSHXWXPX
modifications: DO3A10CM on N-terminus; AA1 Dnal2; AA6 Darg; AA8 Bpa4; AA10 azaGly-NH2
notes: AA3 Phe
EC50 [9]: 430 nM

B6: ^177Lu-BRU-2797 (peptide)
peptide: DO3A10CM-G[Hpgly]HWSH[dR]W[Bpa]P[azaGly]-NH2
modifications: reading uncertain; also: 177Lu complexed by DO3A10CM, printed as 177Lu-DO3A10CM-Gly-Hpgly-His-Trp-Ser-His-Darg-Trp-Bpa4-Pro-azaGly-NH2
Bound % [2]: 2.02%
% Bound [3]: 4.64%
Bound fmoles [10]: 4.1 fmol

B7: BRU-2730 (peptide)
peptide: DO3A10CM-[Sar]HWSH[dR]WFP[azaGly]-NH2
modifications: reading uncertain
notes: AA8 Phe
EC50 [8]: 12.9 µM

B8: BRU-2954 (peptide)
peptide: DO3A10CM-[d2Nal]RWDH[dR]W[Bpa]P[azaGly]-NH2
modifications: reading uncertain
notes: AA4 Asp
EC50 [11]: 4200 nM

B9: BRU-3064 (peptide)
peptide: DO3A10CM-[d2Nal]RWSH[dR]W[Bpa4]-OH
modifications: reading uncertain
EC50 [12]: 670 nM

B10: BRU-2769 (peptide)
peptide: DO3A10CM-[Sar]HWS[Tha][dR]W[Bpa]P[azaGly]-NH2
modifications: reading uncertain
fold lower binding potency than BRU-2443 [13]: ~8 fold
EC50 [14]: 7.34 µM

B11: ^177Lu-BRU-2756 (peptide)
peptide: DO3A10CM-[Sar][Amfe4]WSH[dR]W[Bpa]P[azaGly]-NH2
modifications: reading uncertain; also: 177Lu complexed by DO3A10CM, printed as 177Lu-DO3A10CM-Sar-Amfe4-Trp-Ser-His-Darg-Trp-Bpa4-Pro-azaGly-NH2
Bound % [2]: 5.1%
% Bound [3]: 5.17%
Bound fmoles [4]: 10.2 fmol

B12: BRU-3111 (peptide)
peptide: XRRSHXWXPX
modifications: DO3A10CM on N-terminus; AA1 Dnal2; AA6 Darg; AA8 Bpa4; AA10 azaGly-NH2
notes: AA3 Arg
EC50 [9]: 250 nM

B13: BRU-3114 (peptide)
peptide: DO3A10CM-[d2Nal]RWWH[dR]W[Bpa]P[azaGly]-NH2
modifications: reading uncertain
notes: AA4 Trp
EC50 [11]: 11500 nM

B14: BRU-2666 (peptide)
peptide: XHWSHXWXPX
modifications: N-terminal DO3A10CM; Dnal2 at 1; Darg at 6; Bpa4 at 8; azaGly-NH2 at 10
EC50 [15]: 470 nM
EC50 [16]: 470 nM
EC50 [17]: 2600 nM
times more potent than the Sar1 analog (BRU-2443) [17]: 2 times
EC50 [18]: 390 nM

B15: BRU-3113 (peptide)
peptide: DO3A10CM-[d2Nal]RWLH[dR]W[Bpa]P[azaGly]-NH2
modifications: reading uncertain
notes: AA4 Leu
EC50 [11]: 1130 nM

B16: BRU-2956 (peptide)
peptide: XRWNHXWXPX
modifications: DO3A10CM on N-terminus; AA1 Dnal2; AA6 Darg; AA8 Bpa4; AA10 azaGly-NH2
notes: AA4 Asn
EC50 [11]: 280 nM

B17: BRU-3110 (peptide)
peptide: DO3A10CM-[d2Nal]RESH[dR]W[Bpa]P[azaGly]-NH2
modifications: reading uncertain
notes: AA3 Glu
fold lower binding potency than BRU-2813 [13]: ~8 fold
EC50 [9]: 2600 nM

B18: BRU-2813 (peptide)
peptide: XRWSHXWXPX
modifications: N-terminal DO3A10CM; Dnal2 at 1; Darg at 6; Bpa4 at 8; azaGly-NH2 at 10
EC50 [15]: 330 nM
EC50 [16]: 330 nM
percent more potency than BRU-2666 [17]: 30%
EC50 [19]: 330 nM
EC50 [20]: 420 nM
EC50 [18]: 300 nM

B19: BRU-2767 (peptide)
peptide: DO3A10CM-[Sar]HWSH[dR]WP[azaGly]-NH2
modifications: not fully specified; reading uncertain
EC50 [8]: 10 µM

B20: BRU-2723 (peptide)
peptide: DO3A10CM-[Sar]HWSH[dR]WRP[azaGly]-NH2
modifications: reading uncertain
notes: AA8 Arg
EC50 [8]: 2.83 µM

B21: BRU-3108 (peptide)
peptide: DO3A10CM-[d2Nal]RLSH[dR]W[Bpa]P[azaGly]-NH2
modifications: reading uncertain
notes: AA3 Leu
EC50 [9]: 560 nM

B22: BRU-2964 (peptide)
peptide: DO3A10CM-[d2Nal]RWMH[dR]W[Bpa]P[azaGly]-NH2
modifications: reading uncertain
notes: AA4 Met
EC50 [11]: 220 nM
